In publication PMC6358511 one finds Kd data, which are given here for one molecule.

The target in the data set is EGFRvIII, biotinylated (human, UniProt P00533 25-30+298-645, V30G;internal_change). Description: BLI.

B1: ME07 (alkyne-modified MinE07) (XNA)
RNA: GGACGGAUUUAAUCGCCGUAGAAAAGCAUGUCAAAGCCGGAACCGUCC
modifications: 2'-fluoro at all C and U; 2'-OH purines; 5' alkyne
Molecule B1 returned a Kd of 271 nM.
